Test results from US12374423B2, “Systems and methods for MHC class II epitope prediction” (priority 2017, dated 2025).

Target: T1, MHCII (I-A^b) of murine bone marrow-derived dendritic cells (Mus musculus, UniProt P14434+P14483)
T1 construct: immunoprecipitation of mature peptide-MHCII complexes with monoclonal Y3P antibody; endogenous in cells; host or cells: primary BMDCs from C57/BL6 (WT) mice, exposed to live L. monocytogenes EGDe
T1 sequence (P14434 24-256): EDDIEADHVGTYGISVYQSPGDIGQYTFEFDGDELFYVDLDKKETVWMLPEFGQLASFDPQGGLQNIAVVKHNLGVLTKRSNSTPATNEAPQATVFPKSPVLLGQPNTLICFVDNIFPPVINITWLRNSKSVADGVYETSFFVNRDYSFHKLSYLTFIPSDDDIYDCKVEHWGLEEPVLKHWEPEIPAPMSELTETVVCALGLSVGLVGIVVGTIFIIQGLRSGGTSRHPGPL
T1 sequence (P14483 28-265): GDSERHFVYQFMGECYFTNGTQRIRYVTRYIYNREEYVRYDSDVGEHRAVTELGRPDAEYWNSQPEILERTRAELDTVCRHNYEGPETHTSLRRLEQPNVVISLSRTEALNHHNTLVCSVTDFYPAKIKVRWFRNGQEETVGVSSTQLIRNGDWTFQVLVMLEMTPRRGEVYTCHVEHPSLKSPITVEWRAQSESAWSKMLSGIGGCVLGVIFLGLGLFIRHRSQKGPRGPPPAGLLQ
Assay: MHCII peptidomics of BMDCs exposed to live Listeria (iTRAQ LC-MS/MS of MHCII-associated peptides)
Format: cell-based
Conditions: Listeria peptide found by MHCII peptidomics that matches the BOTA prediction
Source text: To validate BOTA, Applicants tested its performance in predicting MHCII-restricted epitopes from Listeria monocytogenes, one of the most common foodborne pathogens associated with a relatively high mortality rate (Scallan et al., 2011). Despite the epidemiological impact of listeriosis, the number of experimentally validated CD4 T cell epitopes encoded within the Listeria genome is limited. Thus, Applicants first sought to identify MHCII-associated peptides in BMDCs exposed to live Listeria by peptidomics. In these experiments, primary BMDCs were exposed to live L. monocytogenes for 10 minutes or 6 hours prior to immunoprecipitation of mature peptide-MHCII complexes with monoclonal Y3P antibody (Janeway et al., 1984). Associated peptides from biological replicates of the 10-minute and 6-hour timepoints were analyzed using mass spectrometry (LC-MS/MS) (FIGS. 9A and B).
Immuno-affinity purification of MHCII complexes. Bone marrow was harvested from C57/BL6 (WT), Atg16l1^f/f×CD11c-Cre (Conway et al., 2013b), and Atg5^f/f×CD11c-Cre (Conway et al., 2013a) mice. BMDCs were differentiated from bone marrow for seven days in antibiotic-free DMEM supplemented with 20% FBS and GM-CSF (2% conditioned TOPO medium). In parallel, L. monocytogenes strain EGDe (ATCC BA-679) was cultured overnight in BHI medium, washed in PBS, and cocultured with BMDCs at an MOI of approximately 100:1 for 30 minutes. Tissue culture dishes containing cocultures were washed in PBS and cultured for an additional 10 minutes or 6 hours in DC media containing gentamicin (30 μg/ml). BMDCs were then harvested by scraping, washed in PBS, and lysed in 1% NP-40, 4 mM MgCl2, 6 μg/ml DNaseI from bovine pancreas (Sigma Aldrich), and PBS pH 7.4 at 250×10^6 cells/4 ml lysis buffer/sample. Clarified lysates were subjected to immunoprecipitation overnight at 4° C. with gentle rotation. Immunoprecipitation was performed with NHS Mag Sepharose (GE Healthcare) covalently coupled to anti-H2-IA (clone Y3P (Janeway et al., 1984)). Each sample contained 130 μl packed beads and approximately 650 μg antibody. Beads were then washed twice in PBS containing 0.1% NP-40 and three times in PBS.
MHC-peptide elution and desalting. Peptides were eluted from MHC complexes and desalted on in-house-built Empore C18 StageTips (3M, 2315) as described previously (Rappsilber et al., 2007). Sample loading, washes, and elution were performed on a tabletop centrifuge at a maximum speed of 2,000-3,500×g. Briefly, StageTips were equilibrated with 2×100 μL washes of methanol, 2×50 μL washes of 50% acetonitrile/0.1% formic acid (FA), and 2×100 μL washes of 1% FA. In a tube, the dried beads from MHC-associated peptide IPs were thawed at 4° C., reconstituted in 50 μL 3% ACN/5% FA, and loaded onto StageTips. The beads were washed with 50 μL 1% FA, and peptides were further eluted using two rounds of 5-minute incubations in 10% acetic acid. The combined wash and elution volumes were combined and loaded onto StageTips. The tubes containing the IP beads were washed again with 50 μL 1% FA, and this volume was also loaded onto StageTips. Peptides were washed twice on the StageTip with 100 μL 1% FA. Peptides were eluted using a step gradient of 20 μL 20% ACN/0.1% FA, 20 μL 40% ACN/0.1% FA, and 20 μL 60% ACN/0.1% FA. Step elutions were combined and dried to completion.
iTRAQ 4-plex labeling for quantitative proteomics.
In the case of “15028 (ERWNEKYAQAYPNVSAKID; Listeria sp) [compound 15028]”, the “Peptidomics Hit” value is reported as “..........[…]”.
For “15029 (ETQHYYGLPVADSAIDRGPL; Listeria sp) [compound 15029]”, the “Peptidomics Hit” value was “...APGQETQHYYGLPVADSAIDR”.
For “15030 (FRYVFDTAKATAASSYPGS; Listeria sp) [compound 15030]”, the “Peptidomics Hit” value was “......ADFRYVFDTAKATAASSYPG”.
In the case of “15031 (DTTVKFTLPTVAPAFENTIKT; Listeria sp) [compound 15031]”, the “Peptidomics Hit” value is reported as “AVDDTTVKFTLPTVAPAFENT”.
For “15032 (EKVVATPVSNVSTSSATSS; Listeria sp) [compound 15032]”, the “Peptidomics Hit” value was “GTKEKVVATPVSNVSTSSA”.
For “15033 (INQAYTGSTALSDGLNKM; Listeria sp) [compound 15033]”, the “Peptidomics Hit” value was “GGINQAYTGSTALSDGLN”.
For “15034 (GIAVTAFAAPTIASASTVVV; Listeria sp) [compound 15034]”, the “Peptidomics Hit” value was “IAVTAFAAPTIASA”.
With “15036 (TVRAKSKTYPVYINEFALED; Listeria sp) [compound 15036]” the “Peptidomics Hit” value was “TVRAKSKTYPVYInEFALE”.

Same assay, conditions: MHCII-bound peptide abundance, BMDCs, 6 hr versus 10 min after Listeria exposure
In the case of “14980 (WNEKYAQAYPNVS; Listeria sp) [compound 14980]”, the “logFC (Log2 Fold Change Listeria 6 hr versus 10 min)” value is reported as 1.377.
In the case of “14981 (WNEKYAQAYPNVSAKI; Listeria sp) [compound 14981]”, the “logFC (Log2 Fold Change Listeria 6 hr versus 10 min)” value is reported as 1.202.
In the case of “14982 (VERWNEKYAQAYPNVS; Listeria sp) [compound 14982]”, the “logFC (Log2 Fold Change Listeria 6 hr versus 10 min)” value is reported as 0.2849.
For “14983 (ERWNEKYAQAYPNVS; Listeria sp) [compound 14983]”, the “logFC (Log2 Fold Change Listeria 6 hr versus 10 min)” value was 0.2069.
For “14985 (VWTKPNKIEGAQKISALSTY; Listeria sp) [compound 14985]”, the “logFC (Log2 Fold Change Listeria 6 hr versus 10 min)” value was -0.2625.
In the case of “14995 (EVEDLNQPLAAHVNYE; Listeria sp) [compound 14995]”, the “logFC (Log2 Fold Change Listeria 6 hr versus 10 min)” value is reported as 0.1526.
For “15016 (SNVNHVLDIGYGGGSNVKN; Listeria sp) [compound 15016]”, the “logFC (Log2 Fold Change Listeria 6 hr versus 10 min)” value was 0.227.
For “15017 (EVVYHNMKQDLE; Listeria sp) [compound 15017]”, the “logFC (Log2 Fold Change Listeria 6 hr versus 10 min)” value was -0.1708.
For “15018 (DGLKAGEHFFAAGKDWPDAIYANGDEVAAGVMYH; Listeria sp) [compound 15018]”, the “logFC (Log2 Fold Change Listeria 6 hr versus 10 min)” value was -0.4271.
For “15019 (EILLQKPNGERLTSFITL; Listeria sp) [compound 15019]”, the “logFC (Log2 Fold Change Listeria 6 hr versus 10 min)” value was -0.04842.
With “15020 (GLLMAKKYKMNLTIVIVN; Listeria sp) [compound 15020]” the “logFC (Log2 Fold Change Listeria 6 hr versus 10 min)” value was -0.6291.
In the case of “15022 (MNRVMLPLQQMGAKMHGK; Listeria sp) [compound 15022]”, the “logFC (Log2 Fold Change Listeria 6 hr versus 10 min)” value is reported as 0.1447.
For “15023 (VMASDYTRGLSIRAIELVFENL; Listeria sp) [compound 15023]”, the “logFC (Log2 Fold Change Listeria 6 hr versus 10 min)” value was 0.2507.
With “15024 (YMEKHSVSRLVGAPP; Listeria sp) [compound 15024]” the “logFC (Log2 Fold Change Listeria 6 hr versus 10 min)” value was -0.4422.
For “15025 (KTASGIVLPDSAKEKPQSGKIVAVGSGRVLD; Listeria sp) [compound 15025]”, the “logFC (Log2 Fold Change Listeria 6 hr versus 10 min)” value was -0.4963.
For “15026 (ESVYLSAQKENPRLFAKIETF; Listeria sp) [compound 15026]”, the “logFC (Log2 Fold Change Listeria 6 hr versus 10 min)” value was 0.5951.
In the case of “15027 (RDNYLFQLYEATGTPIHPMSPF; Listeria sp) [compound 15027]”, the “logFC (Log2 Fold Change Listeria 6 hr versus 10 min)” value is reported as -0.05049.

Tested on: CD4 T cells
Assay: IFNγ ELISPOT of splenocytes from Listeria-infected mice restimulated with synthetic peptides
Format: in vivo, mouse
Conditions: seven days after i.p. Listeria infection; splenocytes restimulated with 100 nM peptide
Source text: FIG. 10—BOTA and MHCII peptidomics accurately predict immunodominance in vivo. […] At day 7, splenocytes were harvested and restimulated with the indicated peptides for quantification of the T cell response by IFNγ ELISPOT. Data represent the mean number of spots per 1×10^5 CD4 T cells±sd for n=6 mice.
Given that MHCII peptidomics and BOTA successfully identified Listeria peptides and features associated with efficient antigen presentation, Applicants sought to measure T cell responses to these epitopes in vivo. To quantify the CD4 T cell response directed to the top eight candidate Listeria epitopes, mice were sacrificed seven days after intraperitoneal (i.p.) infection with Listeria. T cells were restimulated in vitro with synthetic peptides, and IFN-γ responses were enumerated by ELISPOT. […] The remaining four epitopes elicited weaker responses near the limit of detection for ELISPOT (FIG. 10B).
Listeria infection and ELISPOT. L. monocytogenes strain EGDe (ATCC BA-679) was grown to log phase in BHI, washed in PBS, and used to inoculate mice by i.p. injection with a dose of 1×10^4 CFU/200 μl/mouse. Seven days after infection, spleens were harvested, red blood cells were lysed, and single cell suspensions were replated at 2.5×10^5/200 μl/well on 96-well ELISPOT plates (Millipore MAIPS4510) precoated with anti-IFNγ (BD Pharmingen 551881) at a concentration of 5 μg/ml in PBS. Peptides were added at a concentration of 100 nM to restimulate splenocytes overnight. After stimulation, plates were washed, blocked, and incubated with biotinylated anti-IFNγ (BD Pharmingen 551881) at a concentration of 2 μg/ml and streptavidin-AKP (BD Pharmingen 554065) at a dilution of 1:1000. After 60 minutes, plates were washed and developed with 3-amino-9-ethylcarbazole (AEC, Sigma-Aldrich, A6926). IFNγ-secreting cells were scanned and enumerated using an Immunospot Analyzer ELISpot reader (CTL). All samples were run in triplicate. The following peptides were synthesized by New England Peptide: lmo2185_293-312 […] (SEQ ID NO: 14986), lmo0202_189-204 […] (SEQ ID NO: 14981), lmo0135_150-169 […] (SEQ ID NO: 14997), lmo2558_533-553 […] (SEQ ID NO: 14984), lmo2360_289-306 […] (SEQ ID NO: 15009), lmo0186_285-303 […] (SEQ ID NO: 15005), lmo0582a_26-46 […] (SEQ ID NO: 15012), lmo0582b_12-25 […] (SEQ ID NO: 15013). To calculate the frequency of CD4^+ cells in each splenocyte sample from infected mice, an aliquot of cells from each mouse was stained for flow cytometric analysis. 1×10^6 cells were incubated with 2.4G2 Mouse Fc block in PBS/FBS (BD Pharmingen, 553142) for 20 min at 4° C. […] Fluorescently labeled cells were acquired on the FACSVerse flow cytometer (BD Biosciences) and analyzed using FlowJo Analysis Software (Tree Star).
For “ADFRYVFDTAKATAASSYPG (Listeria sp) [SEQ ID NO: 14986, Listeria peptide from lmo2185]”, the “T cell response (IFN-γ ELISPOT)” value was “Robust responses”.
For “APGQETQHYYGLPVADSAIDR (Listeria sp) [SEQ ID NO: 14984, Listeria peptide from lmo2558 (ami)]”, the “T cell response (IFN-γ ELISPOT)” value was “Robust responses”.
In the case of “VDDTTVKFTLPTVAPAFENT (Listeria sp) [SEQ ID NO: 14997, Listeria peptide from lmo0135]”, the “T cell response (IFN-γ ELISPOT)” value is reported as “Robust responses”.
In the case of “WNEKYAQAYPNVSAKI (Listeria sp) [SEQ ID NO: 14981, Listeria peptide from lmo0202 (hly) (LLO)]”, the “T cell response (IFN-γ ELISPOT)” value is reported as “Robust responses”.

Tested on: ovarian carcinoma patients
Assay: not given
Conditions: poly-ICLC in combination with a NY-ESO-1 peptide vaccine (in addition to Montanide), phase 1; cited from earlier work
In the case of “Polyinosinic-Polycytidylic Acid-poly-L-lysine Carboxymethylcellulose [poly-ICLC]”, the “patients showing induction of CD4+ and CD8+ T cell, as well as antibody responses to the peptide” value is listed as > 90%.
